Experimental data taken from IntAct's records for PubMed 35512704.

B1: Speckle-type POZ protein (Homo sapiens), O43791 (parent)
chain: MSRVPSPPPPAEMSSGPVAESWCYTQIKVVKFSYMWTINNFSFCREEMGEVIKSSTFSSGANDKLKWCLRVNPKGLDEESKDYLSLYLLLVSCPKSEVRAKFKFSILNAKGEETKAMESQRAYRFVQGKDWGFKKFIRRDFLLDEANGLLPDDKLTLFCEVSVVQDSVNISGQNTMNMVKVPECRLADELGGLWENSRFTDCCLCVAGQEFQAHKAILAARSPVFSAMFEHEMEESKKNRVEINDVEPEVFKEMMCFIYTGKAPNLDKMADDLLAAADKYALERLKVMCEDALCSNLSVENAAEILILADLHSADQLKTQAVDFINYHASDVLETSGWKSMVVSHPHLVAEAYRSLASAQCPFLGPPRKRLKQS
partner: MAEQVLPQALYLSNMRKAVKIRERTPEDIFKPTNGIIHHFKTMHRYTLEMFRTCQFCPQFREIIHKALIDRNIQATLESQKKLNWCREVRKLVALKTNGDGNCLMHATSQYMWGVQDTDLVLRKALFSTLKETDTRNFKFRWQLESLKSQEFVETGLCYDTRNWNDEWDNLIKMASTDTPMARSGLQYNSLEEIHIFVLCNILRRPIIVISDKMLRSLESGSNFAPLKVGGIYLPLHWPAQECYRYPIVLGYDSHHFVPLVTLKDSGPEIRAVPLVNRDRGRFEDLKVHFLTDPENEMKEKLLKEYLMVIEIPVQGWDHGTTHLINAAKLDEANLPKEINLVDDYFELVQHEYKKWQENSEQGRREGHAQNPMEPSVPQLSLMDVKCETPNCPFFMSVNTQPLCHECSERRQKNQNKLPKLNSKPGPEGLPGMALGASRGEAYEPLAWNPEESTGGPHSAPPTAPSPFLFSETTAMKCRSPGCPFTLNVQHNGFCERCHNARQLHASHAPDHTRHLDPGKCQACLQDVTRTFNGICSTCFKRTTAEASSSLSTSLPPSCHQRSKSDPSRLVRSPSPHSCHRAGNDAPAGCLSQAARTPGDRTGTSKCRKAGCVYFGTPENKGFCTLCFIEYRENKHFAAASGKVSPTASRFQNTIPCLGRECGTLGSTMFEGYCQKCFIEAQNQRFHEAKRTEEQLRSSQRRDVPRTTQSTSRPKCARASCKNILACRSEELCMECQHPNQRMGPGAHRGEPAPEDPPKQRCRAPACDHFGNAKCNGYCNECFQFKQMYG
B2: Speckle-type POZ protein (Homo sapiens), O43791 (parent)
chain: B1 chain
partner: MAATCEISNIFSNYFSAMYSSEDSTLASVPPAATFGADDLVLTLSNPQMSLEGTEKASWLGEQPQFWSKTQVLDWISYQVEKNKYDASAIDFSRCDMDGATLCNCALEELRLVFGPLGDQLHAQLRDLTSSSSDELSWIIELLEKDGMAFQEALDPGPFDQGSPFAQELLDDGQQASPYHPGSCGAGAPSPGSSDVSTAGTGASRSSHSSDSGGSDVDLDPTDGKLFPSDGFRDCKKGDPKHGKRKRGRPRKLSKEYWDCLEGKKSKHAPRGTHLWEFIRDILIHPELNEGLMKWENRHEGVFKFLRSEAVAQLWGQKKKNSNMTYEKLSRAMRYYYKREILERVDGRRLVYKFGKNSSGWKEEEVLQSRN
B3: Speckle-type POZ protein (Homo sapiens), O43791 (parent)
chain: B1 chain
partner: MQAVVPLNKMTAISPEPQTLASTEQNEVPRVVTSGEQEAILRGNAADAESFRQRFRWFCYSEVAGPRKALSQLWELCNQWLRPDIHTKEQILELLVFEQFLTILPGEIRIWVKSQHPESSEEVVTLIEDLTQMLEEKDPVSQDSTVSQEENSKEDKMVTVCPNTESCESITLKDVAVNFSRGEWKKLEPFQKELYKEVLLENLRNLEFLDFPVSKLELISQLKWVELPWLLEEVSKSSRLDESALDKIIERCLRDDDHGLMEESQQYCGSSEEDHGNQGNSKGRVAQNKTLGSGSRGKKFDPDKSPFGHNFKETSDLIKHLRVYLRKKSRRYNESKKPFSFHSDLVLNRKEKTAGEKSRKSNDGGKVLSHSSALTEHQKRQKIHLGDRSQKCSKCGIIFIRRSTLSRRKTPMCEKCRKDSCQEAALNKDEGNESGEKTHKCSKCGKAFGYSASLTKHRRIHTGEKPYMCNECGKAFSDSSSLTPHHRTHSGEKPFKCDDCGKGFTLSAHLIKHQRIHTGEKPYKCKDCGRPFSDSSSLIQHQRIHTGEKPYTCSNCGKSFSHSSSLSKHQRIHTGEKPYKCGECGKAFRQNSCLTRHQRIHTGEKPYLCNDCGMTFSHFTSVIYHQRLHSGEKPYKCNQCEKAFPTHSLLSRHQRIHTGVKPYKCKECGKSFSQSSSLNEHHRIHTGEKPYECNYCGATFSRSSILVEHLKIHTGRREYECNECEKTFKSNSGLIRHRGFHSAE
B4: Speckle-type POZ protein (Homo sapiens), O43791 (parent)
chain: B1 chain
partner: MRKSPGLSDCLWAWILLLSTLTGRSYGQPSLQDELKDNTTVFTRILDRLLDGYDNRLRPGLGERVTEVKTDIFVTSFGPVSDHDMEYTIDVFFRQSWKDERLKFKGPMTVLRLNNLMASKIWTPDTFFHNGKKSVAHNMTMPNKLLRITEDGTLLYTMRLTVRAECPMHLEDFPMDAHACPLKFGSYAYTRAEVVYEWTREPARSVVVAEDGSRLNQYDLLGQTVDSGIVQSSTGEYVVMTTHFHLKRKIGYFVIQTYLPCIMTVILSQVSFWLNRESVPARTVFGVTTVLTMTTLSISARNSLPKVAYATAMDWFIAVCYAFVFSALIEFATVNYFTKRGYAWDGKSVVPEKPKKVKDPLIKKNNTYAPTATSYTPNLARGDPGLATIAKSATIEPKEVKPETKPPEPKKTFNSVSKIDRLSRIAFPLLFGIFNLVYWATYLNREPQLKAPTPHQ
B5: Speckle-type POZ protein (Homo sapiens), O43791 (parent)
chain: B1 chain
partner: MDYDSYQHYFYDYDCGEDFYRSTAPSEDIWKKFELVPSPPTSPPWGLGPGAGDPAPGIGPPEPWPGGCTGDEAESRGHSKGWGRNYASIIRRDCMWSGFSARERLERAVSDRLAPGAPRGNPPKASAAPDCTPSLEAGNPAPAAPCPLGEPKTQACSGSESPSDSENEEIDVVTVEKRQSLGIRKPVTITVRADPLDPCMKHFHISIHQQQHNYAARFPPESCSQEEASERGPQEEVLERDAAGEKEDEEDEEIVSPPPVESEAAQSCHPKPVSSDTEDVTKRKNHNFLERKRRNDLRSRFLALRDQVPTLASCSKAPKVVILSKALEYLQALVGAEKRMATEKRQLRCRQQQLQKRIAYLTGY
B6: Speckle-type POZ protein (Homo sapiens), O43791 (parent)
chain: B1 chain
partner: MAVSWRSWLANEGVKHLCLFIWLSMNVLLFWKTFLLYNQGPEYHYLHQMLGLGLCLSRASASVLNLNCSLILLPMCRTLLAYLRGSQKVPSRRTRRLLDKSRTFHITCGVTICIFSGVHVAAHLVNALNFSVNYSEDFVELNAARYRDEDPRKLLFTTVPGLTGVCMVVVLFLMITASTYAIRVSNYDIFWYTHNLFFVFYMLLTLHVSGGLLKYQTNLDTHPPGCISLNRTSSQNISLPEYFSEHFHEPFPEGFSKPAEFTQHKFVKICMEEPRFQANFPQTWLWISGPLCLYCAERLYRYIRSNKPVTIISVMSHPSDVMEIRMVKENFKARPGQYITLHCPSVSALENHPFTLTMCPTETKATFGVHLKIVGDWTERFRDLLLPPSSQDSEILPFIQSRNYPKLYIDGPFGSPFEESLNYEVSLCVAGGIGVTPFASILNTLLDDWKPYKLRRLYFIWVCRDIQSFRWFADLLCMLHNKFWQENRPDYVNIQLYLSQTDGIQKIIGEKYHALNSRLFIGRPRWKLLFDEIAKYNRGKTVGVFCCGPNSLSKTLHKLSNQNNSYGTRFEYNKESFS
B7: Speckle-type POZ protein (Homo sapiens), O43791 (parent)
chain: B1 chain
partner: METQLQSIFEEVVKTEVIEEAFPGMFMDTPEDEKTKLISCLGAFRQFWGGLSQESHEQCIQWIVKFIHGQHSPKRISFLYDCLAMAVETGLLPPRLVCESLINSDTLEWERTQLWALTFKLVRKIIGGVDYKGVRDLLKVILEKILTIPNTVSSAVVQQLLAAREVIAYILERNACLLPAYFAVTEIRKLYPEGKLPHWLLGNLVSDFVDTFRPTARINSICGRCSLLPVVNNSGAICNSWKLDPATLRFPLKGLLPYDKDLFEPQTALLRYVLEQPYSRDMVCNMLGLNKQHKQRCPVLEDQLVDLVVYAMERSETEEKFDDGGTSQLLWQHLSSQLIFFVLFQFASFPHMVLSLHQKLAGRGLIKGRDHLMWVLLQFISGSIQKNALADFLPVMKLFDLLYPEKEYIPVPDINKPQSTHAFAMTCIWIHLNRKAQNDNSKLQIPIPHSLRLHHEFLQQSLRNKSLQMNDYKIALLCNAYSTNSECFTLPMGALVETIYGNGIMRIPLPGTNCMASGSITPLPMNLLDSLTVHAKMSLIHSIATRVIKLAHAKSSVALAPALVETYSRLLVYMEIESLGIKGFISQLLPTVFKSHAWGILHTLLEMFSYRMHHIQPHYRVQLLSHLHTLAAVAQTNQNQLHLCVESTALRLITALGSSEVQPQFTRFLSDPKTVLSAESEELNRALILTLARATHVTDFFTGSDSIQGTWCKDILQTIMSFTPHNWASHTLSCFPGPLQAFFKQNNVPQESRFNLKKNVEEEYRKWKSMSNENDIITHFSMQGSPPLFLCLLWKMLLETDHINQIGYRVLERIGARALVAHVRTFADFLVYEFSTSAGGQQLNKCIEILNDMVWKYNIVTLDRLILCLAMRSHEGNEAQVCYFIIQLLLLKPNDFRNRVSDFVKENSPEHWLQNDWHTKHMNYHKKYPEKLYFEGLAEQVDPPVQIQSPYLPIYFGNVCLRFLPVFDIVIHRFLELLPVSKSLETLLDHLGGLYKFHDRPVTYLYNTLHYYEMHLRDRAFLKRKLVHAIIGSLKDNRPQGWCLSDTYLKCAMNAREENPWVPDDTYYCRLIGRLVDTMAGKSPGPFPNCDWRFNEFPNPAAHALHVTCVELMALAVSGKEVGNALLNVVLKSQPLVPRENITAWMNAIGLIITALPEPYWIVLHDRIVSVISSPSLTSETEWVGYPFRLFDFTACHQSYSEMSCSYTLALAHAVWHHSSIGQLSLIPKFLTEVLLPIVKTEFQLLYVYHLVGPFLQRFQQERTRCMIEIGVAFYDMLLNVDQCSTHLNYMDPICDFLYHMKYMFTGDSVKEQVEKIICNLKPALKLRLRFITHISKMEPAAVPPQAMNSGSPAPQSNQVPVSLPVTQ
B8: Speckle-type POZ protein (Homo sapiens), O43791 (parent)
chain: B1 chain
partner: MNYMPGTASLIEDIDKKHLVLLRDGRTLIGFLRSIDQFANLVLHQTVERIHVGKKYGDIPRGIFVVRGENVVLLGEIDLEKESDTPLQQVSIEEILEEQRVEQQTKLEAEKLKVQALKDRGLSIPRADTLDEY

Variants of: B1
Conditions: with tnap3_human TNFAIP3, P21580

effect of a mutation on the interaction	Variant
with no effect	F133L

Variants of: B2
Conditions: with elf3_human ELF3, P78545

effect of a mutation on the interaction	Variant
with no effect	Y87C

Variants of: B3
Conditions: with zn483_human ZNF483, Q8TF39

effect of a mutation on the interaction	Variant
with no effect	Y87C

Variants of: B4
Conditions: with gbra1_human GABRA1, P14867

effect of a mutation on the interaction	Variant
with no effect	Y87C

Variants of: B5
Conditions: with mycl_human MYCL

effect of a mutation on the interaction	Variant
with no effect	F133L

Variants of: B5
Conditions: with mycl_human MYCL
Remark: another data set of the same source

effect of a mutation on the interaction	Variant
with no effect	Y87C

Variants of: B6
Conditions: with nox4_human NOX4, Q9NPH5

effect of a mutation on the interaction	Variant
with no effect	Y87C

Variants of: B7
Conditions: with med23_human MED23, Q9ULK4

effect of a mutation on the interaction	Variant
with no effect	F133V

Variants of: B7
Conditions: with med23_human MED23, Q9ULK4
Remark: another data set of the same source

effect of a mutation on the interaction	Variant
with no effect	F133L

Variants of: B8
Conditions: with lsm1_human LSM1, O15116

effect of a mutation on the interaction	Variant
with no effect	Y87C

Variants of: B8
Conditions: with lsm1_human LSM1, O15116
Remark: another data set of the same source

effect of a mutation on the interaction	Variant
with no effect	F133L

Variants of: B8
Conditions: with lsm1_human LSM1, O15116
Remark: another data set of the same source

effect of a mutation on the interaction	Variant
with no effect	F133V
